From publication PMC6769930, “Endoglin Protein Interactome Profiling Identifies TRIM21 and Galectin-3 as New Binding Partners” (Cells, 2019)

Tests used:
Experiment in all cases: peptide or protein array; ProtoArray human protein Microarray v5.0 (over 9000 human proteins arrayed) probed with recombinant sEng in two replicates; detection with anti-endoglin mAb SN6h and HRP secondary antibody; hits with Z-score >=2.0 in both arrays
Conditions in all cases: both partners purified
[1] = biological target: T1, YTH domain family, member 2 (YTHDF2) (human, UniProt Q9Y5A9 1-579)
T1 construct: human YTHDF2; source: bought: ProtoArray human protein Microarray v5.0 (Life Technologies), individually purified and arrayed
T1 sequence (looked up): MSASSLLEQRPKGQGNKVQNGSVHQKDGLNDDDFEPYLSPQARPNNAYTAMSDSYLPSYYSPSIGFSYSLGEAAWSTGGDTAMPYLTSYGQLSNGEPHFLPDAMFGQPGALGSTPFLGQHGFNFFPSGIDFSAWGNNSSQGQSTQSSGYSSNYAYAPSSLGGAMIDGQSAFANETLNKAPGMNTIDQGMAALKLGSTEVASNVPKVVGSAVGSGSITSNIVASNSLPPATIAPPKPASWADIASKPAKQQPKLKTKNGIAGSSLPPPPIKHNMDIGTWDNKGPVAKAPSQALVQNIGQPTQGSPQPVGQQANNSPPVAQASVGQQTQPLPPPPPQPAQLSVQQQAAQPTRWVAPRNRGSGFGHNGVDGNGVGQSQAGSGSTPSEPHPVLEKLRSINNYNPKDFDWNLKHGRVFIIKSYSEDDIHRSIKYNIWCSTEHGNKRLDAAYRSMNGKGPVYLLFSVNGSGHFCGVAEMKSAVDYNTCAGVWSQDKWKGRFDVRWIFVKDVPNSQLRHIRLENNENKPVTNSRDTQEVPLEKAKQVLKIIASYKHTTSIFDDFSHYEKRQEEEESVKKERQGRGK

[2] = biological target: T2, Lamin A/C (LMNA), transcript variant 2 (human, UniProt P02545-2 1-572)
T2 construct: source: bought: ProtoArray human protein Microarray v5.0 (Life Technologies), individually purified and arrayed
T2 sequence (looked up): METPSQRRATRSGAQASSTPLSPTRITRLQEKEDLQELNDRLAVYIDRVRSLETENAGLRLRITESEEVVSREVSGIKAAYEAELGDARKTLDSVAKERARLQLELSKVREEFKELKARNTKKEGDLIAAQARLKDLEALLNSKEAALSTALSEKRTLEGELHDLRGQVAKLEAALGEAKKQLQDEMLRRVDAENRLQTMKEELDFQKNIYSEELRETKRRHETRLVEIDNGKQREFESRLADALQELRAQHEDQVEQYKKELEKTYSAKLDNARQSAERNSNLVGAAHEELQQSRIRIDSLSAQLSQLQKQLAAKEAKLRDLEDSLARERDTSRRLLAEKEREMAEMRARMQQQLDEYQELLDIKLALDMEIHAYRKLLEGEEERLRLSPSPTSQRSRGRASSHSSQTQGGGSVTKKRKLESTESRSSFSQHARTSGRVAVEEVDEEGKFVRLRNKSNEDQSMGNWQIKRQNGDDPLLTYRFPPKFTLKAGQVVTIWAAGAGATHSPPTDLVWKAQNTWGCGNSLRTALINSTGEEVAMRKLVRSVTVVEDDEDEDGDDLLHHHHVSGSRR

[3] = biological target: T3, Cell cycle associated protein 1 (CAPRIN1), transcript variant 1 (human, UniProt Q14444-1 1-709)
T3 construct: human CAPRIN1, transcript variant 1; source: bought: ProtoArray human protein Microarray v5.0 (Life Technologies), individually purified and arrayed
T3 sequence (looked up): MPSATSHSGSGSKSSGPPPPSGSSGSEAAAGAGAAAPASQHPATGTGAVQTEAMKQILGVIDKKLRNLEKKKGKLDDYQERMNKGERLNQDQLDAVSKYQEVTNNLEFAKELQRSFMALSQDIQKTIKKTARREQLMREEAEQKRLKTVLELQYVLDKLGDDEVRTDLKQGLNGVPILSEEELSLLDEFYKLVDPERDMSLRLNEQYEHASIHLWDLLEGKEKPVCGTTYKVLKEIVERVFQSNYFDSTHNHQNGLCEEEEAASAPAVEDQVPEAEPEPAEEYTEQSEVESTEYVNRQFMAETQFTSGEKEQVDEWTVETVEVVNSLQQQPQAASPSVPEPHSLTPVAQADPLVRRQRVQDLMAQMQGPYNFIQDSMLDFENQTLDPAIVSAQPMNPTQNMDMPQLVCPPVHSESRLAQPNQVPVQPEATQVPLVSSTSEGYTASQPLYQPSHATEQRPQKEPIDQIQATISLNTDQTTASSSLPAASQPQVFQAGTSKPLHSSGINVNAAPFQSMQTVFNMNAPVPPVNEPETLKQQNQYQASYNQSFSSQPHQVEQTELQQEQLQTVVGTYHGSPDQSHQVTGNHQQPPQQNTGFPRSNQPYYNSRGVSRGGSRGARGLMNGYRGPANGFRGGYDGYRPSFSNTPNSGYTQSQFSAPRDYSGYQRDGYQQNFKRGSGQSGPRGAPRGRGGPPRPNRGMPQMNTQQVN

[4] = biological target: RNA polymerase-associated protein RTF1 homolog (RTF1) (human, UniProt Q92541 1-710)

Measured: binding result

B1: recombinant human soluble endoglin (sEng; Glu26-Gly586) (domain or fragment, UniProt P17813 26-586, looked up)
chain: ETVHCDLQPVGPERGEVTYTTSQVSKGCVAQAPNAILEVHVLFLEFPTGPSQLELTLQASKQNGTWPREVLLVLSVNSSVFLHLQALGIPLHLAYNSSLVTFQEPPGVNTTELPSFPKTQILEWAAERGPITSAAELNDPQSILLRLGQAQGSLSFCMLEASQDMGRTLEWRPRTPALVRGCHLEGVAGHKEAHILRVLPGHSAGPRTVTVKVELSCAPGDLDAVLILQGPPYVSWLIDANHNMQIWTTGEYSFKIFPEKNIRGFKLPDTPQGLLGEARMLNASIVASFVELPLASIVSLHASSCGGRLQTSPAPIQTTPPKDTCSPELLMSLIQTKCADDAMTLVLKKELVAHLKCTITGLTFWDPSCEAEDRGDKFVLRSAYSSCGMQVSASMISNEAVVNILSSSSPQRKKVHCLNMDSLSFQLGLYLSPHFLQASNTIEPGQQSFVQVRVSPSVSEFLLQLDSCHLDLGPEGGTVELIQGRAAKGNCVSLLSPSPEGDPRFSFLLHFYTVPIPKTGTLSCTVALRPKTGSQDQEVHRTVFMRLNIISPDLSGCTSKG
notes: human endoglin (CD105), extracellular domain, Glu26-Gly586; The same bought protein was the probe of the array and the analyte of the BLI; also called recombinant human endoglin/CD105 protein; source: bought: R&D Systems (1097-EN), purified recombinant
binds: all assays above
